From publication PMC4388618

Substrate: [H][C@@]12COP(=O)(O)O[C@@]1([H])[C@@H](O)[C@H](n1cnc3c(=O)[nH]c(N)nc31)O2
Test: cyclic nucleotide phosphodiesterase assay kit
Assay type: biochemical, Drosophila melanogaster

B1: Prune (Pn) (Drosophila melanogaster) (protein)
chain: MCFLRFLAQARGTLGRHLAEASPVAWAAAPDVSGRKLHLVMGNESCDLDSAVSAVTLAFVYAQRHREHDYVPILNIPRRDYPLKTEVGHLFVKCGIAEPVLLFRDDIPREVVQDVNVILVDHHVSPLAPNVTEILDHRPLEDSSPSFKQLPTLCQLDIDASVGSCATLVAQRYLAEDQPRSTSVAQLLHATIVLDTINFAPAAKRYGPKDEAMVQKLESELNRKDAQRSSLFDELVAARADISKLTLTEVLRKDMKVLQTDRQVVPLAGMPILVRDFVEKSGAEKAVREFGVESNLLVILGMYVSPADGQVQRDLALISLSGQGQFVQRVQQALMESNDPKLELRPHEVDTRFMGGCFLRQHNVQATRKHILPIVKRALLEWEADHACDCDEVYFFKEKPQLGLS
For B1, the Km was 17.97 ± 10.78 µM and the kcat was 0.00123 ± 0.00014 s⁻¹.
